This passage reports HBV-DNA value, fold over the control cell lines results from patent publication EP0952217A2.

The assay addresses SCCA1 recombinant protein expressed on transfected HepG2 and CHO cells (human) (UniProt P29508). Nature of the assay: virus-to-cell binding assay: transfected cells incubated 20 min with HBV-positive serum and washed, cell-associated HBV-DNA measured by hybrid capture.
Sequence of UniProt P29508 (P29508 whole entry T357A): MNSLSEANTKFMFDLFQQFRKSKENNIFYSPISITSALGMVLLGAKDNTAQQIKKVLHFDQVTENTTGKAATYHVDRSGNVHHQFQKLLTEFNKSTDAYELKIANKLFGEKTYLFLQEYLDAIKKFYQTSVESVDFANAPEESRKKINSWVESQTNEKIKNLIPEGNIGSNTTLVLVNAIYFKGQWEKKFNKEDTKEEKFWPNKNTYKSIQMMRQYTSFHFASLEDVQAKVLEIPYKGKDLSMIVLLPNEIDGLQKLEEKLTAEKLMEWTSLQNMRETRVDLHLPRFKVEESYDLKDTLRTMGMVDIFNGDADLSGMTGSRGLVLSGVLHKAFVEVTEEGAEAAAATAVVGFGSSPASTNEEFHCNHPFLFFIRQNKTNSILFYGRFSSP

Regarding “HBV viral particles from HBV-DNA positive serum of patients with acute hepatitis B”, the HBV-DNA value, fold over the control cell lines was > 8 .fold.
